Substitutions are numbered along the chain they refer to.

We go through 31 molecules from paper PMC10786891, “Massively parallel profiling of RNA-targeting CRISPR-Cas13d”.

First the molecules themselves.
B1: target 1 insG 3' of 22,insA 3' of 7 (mixed)
RNA 1: CACCCGUGCAAAAAUGCAGGGGUCUAAAACUGAGCGGAUAACCUCUCUAUGG
RNA 2: GGGAAUGGAUCCACAUCUACGAAUUCGUACGCAUAGAGAGGUUAUCACGCUCACCGAGAUCGGAAGAGCACACGU
B2: target 1 insU 3' of 18,insG 3' of 8 (mixed)
RNA 1: B1 RNA 1
RNA 2: B1 RNA 2 with G31C, C32A, A33U, U34A, A35U, C46G, A47C
B3: target 2 MT 5'PFS AAC 3'PFS AGC (mixed)
RNA 1: CACCCGUGCAAAAUUGCAGGGGUCUAAAACCUUCUCCAAAUUGUUUCAUCCU
RNA 2: GGGAAUGGAUCCACAUCUACGAAUUCAACAGGAUGAAACAAUUUGGAGAAGAGCAGAUCGGAAGAGCACACGU
B4: target 2 MT 5'PFS UUG 3'PFS ACU (mixed)
RNA 1: B3 RNA 1
RNA 2: B3 RNA 2 with A27U, A28U, C29G, G53C, C54U
B5: target 2 MT 5'PFS UAA 3'PFS AUG (mixed)
RNA 1: B3 RNA 1
RNA 2: B3 RNA 2 with A27U, C29A, G53U, C54G
B6: target 2 MT 5'PFS UUG 3'PFS ACA (mixed)
RNA 1: B3 RNA 1
RNA 2: B3 RNA 2 with A27U, A28U, C29G, G53C, C54A
B7: target 2 MT 5'PFS CAG 3'PFS AAA (mixed)
RNA 1: B3 RNA 1
RNA 2: B3 RNA 2 with A27C, C29G, G53A, C54A
B8: target 2 MT 5'PFS GGA 3'PFS AAA (mixed)
RNA 1: B3 RNA 1
RNA 2: B3 RNA 2 with A27G, A28G, C29A, G53A, C54A
B9: target 2 MT 5'PFS AAC 3'PFS CAU (mixed)
RNA 1: B3 RNA 1
RNA 2: B3 RNA 2 with A52C, G53A, C54U
B10: target 2 MT 5'PFS UAC 3'PFS CUG (mixed)
RNA 1: B3 RNA 1
RNA 2: B3 RNA 2 with A27U, A52C, G53U, C54G
B11: target 2 MT 5'PFS UAC 3'PFS CUC (mixed)
RNA 1: B3 RNA 1
RNA 2: B3 RNA 2 with A27U, A52C, G53U
B12: target 2 MT 5'PFS GCA 3'PFS AUA (mixed)
RNA 1: B3 RNA 1
RNA 2: B3 RNA 2 with A27G, A28C, C29A, G53U, C54A
B13: target 2 MT 5'PFS GUG 3'PFS UAG (mixed)
RNA 1: B3 RNA 1
RNA 2: B3 RNA 2 with A27G, A28U, C29G, A52U, G53A, C54G
B14: target 2 MT 5'PFS ACG 3'PFS CUU (mixed)
RNA 1: B3 RNA 1
RNA 2: B3 RNA 2 with A28C, C29G, A52C, G53U, C54U
B15: target 2 MT 5'PFS AAC 3'PFS CAC (mixed)
RNA 1: B3 RNA 1
RNA 2: B3 RNA 2 with A52C, G53A
B16: target 2 MT 5'PFS UAA 3'PFS AUU (mixed)
RNA 1: B3 RNA 1
RNA 2: B3 RNA 2 with A27U, C29A, G53U, C54U
B17: target 2 MT 5'PFS GCA 3'PFS AUU (mixed)
RNA 1: B3 RNA 1
RNA 2: B3 RNA 2 with A27G, A28C, C29A, G53U, C54U
B18: target 2 MT 5'PFS UUG 3'PFS ACC (mixed)
RNA 1: B3 RNA 1
RNA 2: B3 RNA 2 with A27U, A28U, C29G, G53C
B19: target 2 MT 5'PFS UAC 3'PFS CUU (mixed)
RNA 1: B3 RNA 1
RNA 2: B3 RNA 2 with A27U, A52C, G53U, C54U
B20: target 2 MT 5'PFS UUG 3'PFS ACG (mixed)
RNA 1: B3 RNA 1
RNA 2: B3 RNA 2 with A27U, A28U, C29G, G53C, C54G
B21: target 2 MT 5'PFS UUG 3'PFS UCC (mixed)
RNA 1: B3 RNA 1
RNA 2: B3 RNA 2 with A27U, A28U, C29G, A52U, G53C
B22: target 2 MT 5'PFS GGA 3'PFS AAU (mixed)
RNA 1: B3 RNA 1
RNA 2: B3 RNA 2 with A27G, A28G, C29A, G53A, C54U
B23: target 2 MT 5'PFS ACA 3'PFS CCG (mixed)
RNA 1: B3 RNA 1
RNA 2: B3 RNA 2 with A28C, C29A, A52C, G53C, C54G
B24: target 2 MT 5'PFS GGA 3'PFS AAG (mixed)
RNA 1: B3 RNA 1
RNA 2: B3 RNA 2 with A27G, A28G, C29A, G53A, C54G
B25: target 2 MT 5'PFS GCA 3'PFS AUC (mixed)
RNA 1: B3 RNA 1
RNA 2: B3 RNA 2 with A27G, A28C, C29A, G53U
B26: target 2 MT 5'PFS UAA 3'PFS AUA (mixed)
RNA 1: B3 RNA 1
RNA 2: B3 RNA 2 with A27U, C29A, G53U, C54A
B27: target 2 MT 5'PFS GCA 3'PFS AUG (mixed)
RNA 1: B3 RNA 1
RNA 2: B3 RNA 2 with A27G, A28C, C29A, G53U, C54G
B28: target 2 MT 5'PFS UAA 3'PFS AUC (mixed)
RNA 1: B3 RNA 1
RNA 2: B3 RNA 2 with A27U, C29A, G53U
B29: target 2 MT 5'PFS UAC 3'PFS CUA (mixed)
RNA 1: B3 RNA 1
RNA 2: B3 RNA 2 with A27U, A52C, G53U, C54A
B30: target 2 MT 5'PFS GGA 3'PFS AAC (mixed)
RNA 1: B3 RNA 1
RNA 2: B3 RNA 2 with A27G, A28G, C29A, G53A
B31: target 2 MT 5'PFS UGC 3'PFS UGC (mixed)
RNA 1: B3 RNA 1
RNA 2: B3 RNA 2 with A27U, A28G, A52U

The target in this data set is T1, EsCas13d, nuclease-dead (Eubacterium siraeum, UniProt B0MS50, R295A;H300A;R849A;H854A).
T1 sequence: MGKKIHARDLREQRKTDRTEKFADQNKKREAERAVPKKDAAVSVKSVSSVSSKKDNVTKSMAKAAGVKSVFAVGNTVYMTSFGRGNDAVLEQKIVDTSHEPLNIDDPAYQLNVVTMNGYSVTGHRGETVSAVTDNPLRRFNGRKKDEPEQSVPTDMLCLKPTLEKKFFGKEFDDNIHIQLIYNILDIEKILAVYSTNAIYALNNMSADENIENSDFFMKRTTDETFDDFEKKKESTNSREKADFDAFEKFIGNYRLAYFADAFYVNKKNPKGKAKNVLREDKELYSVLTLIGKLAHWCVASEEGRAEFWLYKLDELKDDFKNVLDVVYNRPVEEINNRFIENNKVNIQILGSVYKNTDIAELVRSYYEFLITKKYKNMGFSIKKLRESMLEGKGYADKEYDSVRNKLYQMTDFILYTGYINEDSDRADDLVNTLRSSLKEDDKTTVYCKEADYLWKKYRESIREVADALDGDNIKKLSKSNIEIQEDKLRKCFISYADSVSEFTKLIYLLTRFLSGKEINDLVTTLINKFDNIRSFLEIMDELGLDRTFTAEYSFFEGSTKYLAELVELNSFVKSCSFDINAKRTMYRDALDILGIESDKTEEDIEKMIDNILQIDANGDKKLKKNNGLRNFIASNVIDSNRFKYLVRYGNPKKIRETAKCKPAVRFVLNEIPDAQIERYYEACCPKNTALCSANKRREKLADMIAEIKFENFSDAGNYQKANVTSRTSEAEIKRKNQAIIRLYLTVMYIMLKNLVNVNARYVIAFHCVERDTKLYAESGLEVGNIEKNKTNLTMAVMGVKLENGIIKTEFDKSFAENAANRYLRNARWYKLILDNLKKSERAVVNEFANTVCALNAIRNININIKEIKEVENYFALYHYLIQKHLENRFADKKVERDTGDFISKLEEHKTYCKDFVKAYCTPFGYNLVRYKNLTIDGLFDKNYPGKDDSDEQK
In words: crRNA (strand 1, pre-loaded); Mg2+; 40 mM Tris-HCl pH 7.5, 150 mM NaCl, 6 mM MgCl2, 1 mM DTT, 0.1% Tween-20, 0.2 mg/ml BSA; 25 C; 10 min per concentration, then washed. Conditions: tags: His6-TwinStrep-SUMO cleaved; N-terminal SNAP kept (SNAP-Surface 488); label: 3' end held by stalled T7 RNA polymerase.
By Kd is commonly meant the free concentration of one partner at which half of the binding sites on the other are occupied at equilibrium, for simple one-to-one binding. A low value points to tighter binding. As for B1, the Kd was determined as 15.2 ± 1 nM. B2 had a Kd of 41 ± 4 nM. Molecule B3 displayed a Kd of 4.4 ± 1.5 nM. In turn, B4 gave a Kd of 16.2 ± 1.8 nM. Consider B5, for which the Kd came to 5.6 ± 1.5 nM. Take B6: the Kd worked out at 15 ± 1.4 nM. Then B7, with 7.5 ± 2 nM; and B8, with 8.6 ± 1.9 nM; and B9, with roughly 8 nM.

Molecule B10 gave a Kd of 10.4 ± 1.7 nM. As for B11, binding was characterised by a dissociation constant (Kd) of 16 ± 6 nM. With B12 the figure was 7.2 ± 1 nM; with B13, 13.3 ± 1.3 nM; with B14, 11.1 ± 2.1 nM. With B15, binding was characterised by a dissociation constant (Kd) of 6.2 ± 2 nM. For B16, the Kd was 3.9 ± 0.6 nM. As to B17, binding was characterised by a dissociation constant (Kd) of 10.3 ± 1 nM. As to B18, binding was characterised by a dissociation constant (Kd) of 47 ± 10 nM. In the case of B19, binding was put at a Kd of 7.2 ± 1.1 nM.

B20 gave a Kd of 18.5 ± 1.6 nM. The molecule B21 showed a Kd of 42 ± 7 nM. The molecule B22 gave a Kd of 6.7 ± 0.6 nM.

B23: the equilibrium dissociation constant (Kd) worked out at 6.3 ± 1 nM. B24 gave a Kd of 9.3 ± 1.4 nM.

Regarding B25, the Kd is 14 ± 4 nM. B26 yielded a Kd of 4.3 ± 0.6 nM.

B27 yielded a dissociation constant (Kd) of 8.8 ± 0.9 nM. Molecule B28 came in with a Kd of 5.1 ± 0.5 nM.

In turn, B29 showed a Kd of 6.8 ± 1 nM.

For the molecule B30, the Kd amounted to 7.4 ± 0.7 nM.

The molecule B31 registered a Kd of 64 ± 18 nM.
